Data: a protein production outcome set (Wang et al. 2014)

Test: label from the status in PepcDB records
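Note: failed if final PepcDB status was selected cloned or expressed and not failed if soluble or beyond.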

| Sequence | protein production |
| --- | --- |
| SIVIIFNPNSTGDAPELAQQLHGKLKELLTYQPEITLQPTEHAGHAVDLAREAASKGGDVLVVSVSGDGGYNEVVNGVMQADNPRAVAAVLAAGNANDHSRIIGTKPLEEAIAEGRVHNIDLLRIHTG | failed |
| MIKKARKFIPFFLIGSLLAEDNGWYMSVGYQIGGTQQFINNKQLLENQNIINSVTQSAINIAGPTTGLITLSSQTVIDALGYGVSNTVGNQLEGISNILNQIGKRKDFYSSRQISSISQQIIGLKGSSDPLKAHSSQITAKLLSNTQSAFDQGIALSTNIISSINSLNPSNNTQEVKKQLQNTAQSMTELLQQIEHSITKTTSTTYAQSLLSNLTDAVNASSNNTAYVSALVNALNTLGVGVFPTTTTTHVVLNPPGQVVFYPTNSILGSTSSNSNNQQQYNNTLLMNTLQGTLSANTQNNPNGCANQVQCLEQFIQNLAPLAATPTSNNQANQQVQAIAQKLQSVAINTLDNNAINNTTYNLNNLHNALNFQAYESTIEQYNNALKQISWISFTEPKNLLKNTSNNYQIGTVTNAQGQNISAYDCMTATGSLSSNASSGISCSATSSTSSTNSFDNSLVATSKVQTINGKEQIGVNSFNLVSQVWSVYNSLKTSEENLQKNANILCANGTQSGTSSCNSSSGGLSISGNAQLQNILSPTSGTTTNTQAKSNAPKLKAMVVVNNEEEAKTANLAQSSGTTTQSPNSTVMGALNTVLQNVSNFQQSIQNAFQNQESNIQAWANAIYNTNGSQSQEMTPNNNQDLRIQLRANFYQLINTINQQVPTDMNALINQSQQTQQTSGSASNNNACASGMSGSNGNWCYQQWSDSKAYYSGLQSALGYQTQATTQSGSNGGNSITYNVQQITLTSNGLLNQIITNLKSVNGGNGASGTGSGNGTSQINTAYQMLTDASDGKLGTYSSSSGSNNGYTPCNSTNGSNKTSGNNCYEPNKQQNATTATATTDSNLQKVYNDAQKIANIIASSGNNKGVENGLKQFFEALKNNSSSLSNLCGNGSSGSSGTTCSGWLINLLGAIPTNGVSDTNNLINLLTEFIKTAGFIQNNDSSVSTSLTSAFQAITSAISQGFQALQNDISPNAILTLLQEITSNTTTIQSFSQTLRQLLGDKTFFMAQQKLIDAMINARNQVQNAQNQANNYGSQPVLSQYAAAKSTQHGMSNGLGVGLGYKYFFGKARKLGLRHYFFFDYGFSEIGLANQSVKANIFAYGVGTDFLWNLFRRTYNTKALNFGLFAGVQLGGATWLSSLRQQIIDNWGSANDIHSTNFQVALNFGVRTNFAEFKRFAKKFHNQGVISQKSVEFGIKVPLINQAYLNSAGADVSYRRLYTFYINYIMGF | failed |
| MKLVVVSAGLSVPSSTRLLADRLAKATAARVPAEVEVVELRDLAVEIAHNFTNGFPGRALAAAIGAVTEADGLIVVTPVFSASYSGLFKSFFDVLEQGVLAGKPVLIAATGGSARHSLVLEHALRPLFAHLRAVVVPTGVYAASEDWGAEGLAERIERAAGELAGLMTGLMSGVSAVGPARDAQPRAGAEVSADGPAAAPAEGSVPRPRETVAQSATAGRGSRTDGFQVVPFEQQLAALRTR | failed |
| MRFPELEELKNRRTLKWTRFPEDVLPLWVAESDFGTCPQLKEAMADAVEREVFGYPPDATGLNDALTGFYERRYGFGPNPESVFAIPDVVRGLKLAIEHFTKPGSAIIVPLPAYPPFIELPKVTGRQAIYIDAHEYDLKEIEKAFADGAGSLLFCNPHNPLGTVFSEEYIRELTDIAAKYDARIIVDEIHAPLVYEGTHVVAAGVSENAANTCITITATSKAWNTAGLKCAQIFFSNEADVKAWKNLSDITRDGVSILGLIAAETVYNEGEEFLDESIQILKDNRDFAAAELEKLGVKVYAPDSTYLMWLDFAGTKIEEAPSKILREEGKVMLNDGAAFGGFTTCARLNFACSRETLEEGLRRIASVL | failed |
| MSLIMITAEMVPPDLLIKRLAIYLKENVKTVDPPEWALLAKTASFKERVPDNAEDWWYIRAASLLRKLYVNSIIGIEKTRTIYGGRKRRGTRPEKFVKAPGHVNRLIFQQLEKAGLVQKIKNKGRSLSPKGRSLLDKLALEIFKELAENNTSLKVYLELEHHHHHH | not failed |
| MSVSGPCLSCDTPGCTMQAHSDSDESFFERAWAVVAQIPVGRVTTYGDIAAHLGRRGAARIVGWALKDAVGGDLPCHRVVNRNGVLTGRRHFETPHVMAERLRSEGVTFVAEDQVDLDAHRWRPGEAE | failed |
| MFGISISSAILHFVIGGFAVALASIMADKVGGKLGGIIATMPAVYLAAIIALAIDHKGQQLIQMSIHLSTGAIVGIVSCIVTVFFTSIFIGKKNYRSGTVFAILCWFVISVAIFLVRHI | failed |
| MPLLPHNRTALGFLLRHLIAGLTGGLVFGGLILALDISGLRSMLMASQDGLLYTLLLFFGLSVTFGGVAMGVGVMSLGEDKN | failed |
| MNRSFNIIISFKFIFWNMKSKPMNVIFDVLNEIHGFFGALWAGAALLNFLIKPQDKRQFERIGRFFLITSIITIITGIIIFAYIYLAPYQGNLFLVAAILRSSLDIRIRAFLNLIGGAFGLLAFGAGIVISNRIRLMVRVKEGDVTILELRNSVSNLSKISLVFLLISLAMMILAGSIAQVIT | failed |
| MEIAKGVEMLQLEFQEFIIHPILLWNDEMAVLIDTGFPGQFEDIQVEMKRVGVSVDKLKVVILTHQDIDHIGSLPDLLENGVSDIKVYAHELDKRYIEGDLPLLKDVHVENPPKGKVSDTVIDGQELPYCGGILILHTPGHTPGHISLYLKQSKTLIAGDSMYSVNGKLGGIHAPTTLNIMEAQQSLKKYLNLDIESVVCYHGGLSKGNIKIQLQNL | failed |
| MSLVNSLTHYEILRIPSDATQDEIKKAYRNRLLNTHPDKLSKSIHDTVSNVTINKIQDAYKILSNIKTRREYDRLILENYK | not failed |
| MNNEAVFSARLSSTQHVGLCRLCNSPLVHTFVDLGMSPPCESFVAADAANDVEPFYPLHAFVCDECFLVQLQEYVAPENIFTEYAYFSSFSDSWVAHAKRYCDMVIERFALGQSSFVVELASNDGYLLQHFLTSNIPMLGIEPAVNVAKVAIGKGIPTLTEFFNEALATDMAARGQKADLIIGNNVLAQVPDINDFVAGMKTLLKPEGVITLEFPHIEKLIAENQFDTIYHEHFSYFSLLTIEKMARRHGLKVFDVEEIPTHGGSLRVFFSHEDIRFPREARVDSLLARELNAGLDKIETYTAFAEAVRQTKRNLLSFLIRLKEMRKSICAYGAPGKGNTLLNYCGIGTDFIDFAVDRNPYKHGRLTPGMHIPIRPVSEIPHMKPDYVLILPWNLKNEIVAQMKDIRNWGGKFIVPIPDISIIDPKELVQ | failed |
| MFKKRLNKDKINDCYTWEEELPDGSYDMGFHGNLNHMEKGKSGYVTHKQLDKKLEVFKQDLLVELSEKFVTKEEFRAQGKQIKELQIEQKAQGKTLQLILEALQGINKRLDKLESKLEHHHHHH | not failed |
| MSEAKWLSLLGLAARARQLLTGEEQVVKAVQNGQVTLVILSSDAGIHTKKKLLDKCGSYQIPVKVVGNRQMLGRAIGKHERVVIGVKDAGFSRKLAALIDE | not failed |
| MRLVADSACDIKELRGMVFKAVPLTISTDNEEFCDDGQLDIHRMLDILEKHKGRSYTACPGIDAWLEAFGDDDEIFVVTITAGMSGTYNSAMAARAVYLEEHPQAKVRVIDSKSTGPQMRIILEQLQQMIEEGKKFEEIDGAIDAYMQKTRLFCSLKSLHNLAQNGRVSKVVASAAEVLGISVIGTASSHGTLEAIGKCRGDKKLLVKLQALLDDAGYEGGKLRICHVENEALADKIADMIKQAYGTTDVCVYKAGGLCSYYAERGGIILSCETK | not failed |
| MNIITTDPLFGFVLTVLVFMIGVRINENFRKPWTNPLLFATVVIILILSLAHIPYKNYYIGGSIINDLIGPSTVALGIPLYKTFHLMKHHARSIVSSIAIAALVNCIFTALCAKFFSLSKLASLSIFPKSVTTAMAMGISDKMHGVEQITVVVVVATGILTSVLGGPLLKLFRITDPVAQGIALGGTGHAVGTGTAIELGKTQGAMAALSIGVTGIMYVIFAPIIAKIILGY | failed |
| MENRKLAVLIDADNAQSSLIAELLAEVAKYGTAIVKRAYGDWTTTQLKGWKEVLHQYAISPIQQFAYTKGKNSTDSALIIDAMDLLYTGNFDGFCLVSSDSDFTRLATRLREGGLTVIGLGEQSKTPRPFIAACDKFVFTEILRPAPPAKPKPETAATADKPKARSSRTRAKAAPHKEKHPLQDMFTSAIEAVARDSGWAELSAVGSYLAKNDPSFDPRNWGHGRLSQMVKKLDFLTVQESRNGSKLHSEIRLRHDGEAAVAEPAAPVETPQPSPSEEAAPPPRKKRSPRKKISPAGLEHHHHHH | failed |
| MNIAANPHVQADQTVYLKDYQKPSFLVESINLDIQVYDDHTVVESTLVMNRQTAGDLVLLGRDLELKSIVLNGKNLEVGQYQLDHEQLVITHAPDQVILNTQVVIHPESNTQLEGLYKAGGDLFVTQNEPEGFRKITFYPDRPDVLAEFTTRVEADKKFPVLLANGNLLETGTVGENRHFAIWQDPTKKPSYLFACVIGDLAVLKDHYTTSEGREVALEIYAIEKDIPKCHIAMEALKHSMRWDEEHYGRPYDLDNYMIVAVSQFNMGAMENKGLNIFNTSCVLADEEYTTDAAIMRVQSVIAHEYFHNWTGNRITCRDWFQLCLKEGLTVFRDQSFSEDLQSAAVQRIDDVAVLKAHQFPEDAGPLSHPPRPDHFVEINNFYTATVYEKGAEINRMMSTLLGKEKFRQGTDEYFHRYDGQAVTVEDWVNALSAGSGVDLSNFLTWYNQPGTPKLEAKGEYDEQNHVYRLSFKQSLKVHPKYPNLKAVPVPVALALFNAETGEQYTLHCQDLFVNEVQDGVYLFDQDTATIEFSNVTQKPVVSLLRNFSAPVNLDFDYSDDELAFLIEYETNGFNQWQASQTLLERILLKDHAVEPYIKAIKNTLPDLVKKDPLLASRLFDVPTEGYLGSRIDHDYKPEAIQEKRNSVLETLARELGAFWKETYLSLDPSLQNDFSQAMGERALKNIMLSMMARQGDDSVFDLAYTQYSQTKNMSERLGALRVLVWNDAPQAQNALDDFYRRYKDEALSLDQWFMVQAANPNATAETIKALTEHPDYDLGTPNRVRSVSGGLSNNPVNAWSFGVEHYIGLAEYFDEKNPILGSRLLQVLSRWYTLAEPQRGNVQNALKDLQPHVKSKNVKETLNSILSV | failed |
| MEIKAYKKKNGTTAYKFKAYIGKKNGKSQYAEKSGFKTKADARAALHNIQEEIDNPTPKSSMTFKELYDEWLLVYEKEVQNSTYYKTTRAFEKHVLPVIGSTKLSDFTPMELQNFRNDLSEKLKFARKLFGMVRKVFNHAALLSYIQANPALPVTSQGIKKKVEEKKDFYDTDELRDFMALVEKTNDIKKIALFRILAFTGIRKGELLALEWKDYRKSTLDINKAISHSPVGYEILPPKANSNRLLSLDEKTCKILDELHQTYPESTRIFESENGGMLSPSKPRKWLLEITKEKEIEPIRIHAFRHTHASLLFESGMSLKQVQYRLGHADLKTTMNIYTHITKFAKDKIGQQFSDYIDF | failed |
| MSLILYDYFRSTACYRVRIALNLKKIAYEKIEVHLVNNGGEQHSLQYHQINPQELVPSLDINGQILSQSMAIIDYLEEIHPEMPLLPKDPFMKATLKSMALIVACDMHPLNNLRVLNRLKEQFNANEEQVLEWYHHWLKTGFDAFEEKLGALERDKPVCFGSEVGLADVCLIPQVYNAHRFHFDMASYPIINEINEYCLTLPAFHDAAPEAISSEGHHHHHH | not failed |
| LNLPYDEHADAWTQVKKALAAGKRTHKPTLLVFGANWCTDCRALDKSLRNQKNTALIAKHFEVVKIDVGNFDRNLELSQAYGDPIQDGIPAVVVVNSDGKVRYTTKGGELANARKMSDQGIYDFFAKITETRGV | failed |
| MKGKILDYSIQTSTGIIRAENQQRYSFSGSAWKEQQAPMRGMHVDFEIDAQDQVIDIFIDASDLEPAIQPSPTAVISDTVSKETHADNLSTSSDPLSSASLSHTHSQYSSSTDDQHQNLLANESKYSMMDWVMKCLRNYINFTGRARRKEYWFFQLWYAILSFVMLVLGDAFHWGDNLFLIATLLVALPAIAVSAHRLHDINRSGWLVLLNLVTIVGVLIVTFFFMIKEGDQTTNSYGPASK | failed |
